Measurements published in paper PMC9542875.

Tests used:
[1] = target: allophycocyanin αβ dimer (purified APC, Sigma-Aldrich A7472) (UniProt P72504); test: native MS; purified APC, 1 μM hexamer (6 μM bilin); 100 mM ammonium acetate; without metal ions and with Ag+, Cu2+, Fe2+/3+ or Zn2+ (oligomeric equilibrium unchanged on a short timescale; prolonged exposure to Cu2+ gives dissociation towards the dimer)
[2] = target: phycocyanin αβ dimer (Arthrospira maxima CCAP 1475/9) (Arthrospira maxima (CCAP 1475/9)); test: native MS; purified PC (24 μM bilin) with Ag+ at 0.25 and 0.5 bilin equivalents; 100 mM ammonium acetate
[3] = target: phycocyanin αβ dimer (Arthrospira maxima CCAP 1475/9) (Arthrospira maxima (CCAP 1475/9)); test: native MS; purified PC without metal ions, 1 μM hexamer (Fig. 1D); 100 mM ammonium acetate pH 6.8; nano-electrospray, Orbitrap; hexamer to αβ dimers

Substance | stoichiometry N [1] | stoichiometry N [2] | stoichiometry N [3]
allophycocyanin αβ dimer (purified APC, Sigma-Aldrich A7472) (from UniProt P72504 1-161; P72505 1-161) (complex) | 3 |  | 
phycocyanin αβ dimer (Arthrospira maxima CCAP 1475/9) (from UniProt P72509 1-162; P72508 1-172) (complex) |  | 2 | 3
